Results as given in US20240002497A1 (Merck Sharp & Dohme, published 2024).
Residue numbers refer to the chain shown, from its start. Names and notes keep the numbering of the source.

B1: F010301080 (VHH)
VHH: EVQLVESGGGLVQPGGSLRLSCAASGMLFNANTQGWYRQAPGKQRELVAFIFWGGYVTYNDSVKGRFTISRDNAKRTMYLQMNSLKPEDSAIYYCSLSRYLGQGTLVTVSS
notes: also called F0103265A11(S53W, T57V, N58T, V60N)
B2: F010301090 (VHH)
VHH: B1 VHH with W53S, Y56W, V57T, L101Q
notes: vs F0103265A11: Y56W, N58T, V60N, L103Q
B3: F010301129 (VHH)
VHH: B1 VHH with W53S, Y56W, V57T, T58N, S96A, L101Q
notes: vs F0103265A11: Y56W, V60N, S93A, L103Q
B4: F010301162 (VHH)
VHH: B1 VHH with A31R, W53S, Y56W, V57T, T58N, L101Q
notes: vs F0103265A11: A31R, Y56W, V60N, L103Q
B5: F010301191 (VHH)
VHH: B1 VHH with A31R, W53S, Y56W, V57T, T58N, S96A, R99V, L101Q
notes: vs F0103265A11: A31R, Y56W, V60N, S93A, R101V, L103Q
B6: F0103275B05 (VHH)
VHH: EVQLVESGGGLVQPGGSLRLSCAASGSIFNINSMAWYRRAPGKQRELVASSTNGGSTNYADSVKGRFTISRDNAKRVYLQMNSLTPEDTAVYYCNALLQPSIYDISRTYWGQGTLVTVSS
notes: also called F0103275B05 (parental)-FLAG-HIS6
B7: F010301637 (VHH)
VHH: B6 VHH with L11V, T85R, V91L
notes: also called F0103275B05(L11V, T83R, V89L)
B8: F010302368 (VHH)
VHH: EVQLVESGGGVVQPGGSLRLSCAASSRAFIRDVFTGWYRQAPGKQRELVARIYNGGNTNYADSVKGRFTISRDNAKKTVYLQMNSLRPEDTALYYCLFSGTISTGREYRSGDYWGQGTLVTVSS
notes: F010302365 background plus R39Q, A63V
B9: F010302333 (VHH)
VHH: B8 VHH with A28Q, Q40R, G55E, V64A
notes: F010302365 background plus A28Q, G54E
B10: F010302341 (VHH)
VHH: B8 VHH with A28Q, G55E, V64A
notes: F010302365 background plus A28Q, R39Q, G54E
B11: F010302357 (VHH)
VHH: B8 VHH with A28Q, G55E
notes: F010302365 background plus A28Q, R39Q, G54E, A63V
B12: F010302365 (VHH)
VHH: B8 VHH with Q40R, V64A
notes: also called F0103464B09(L11V, T24A, T25S, V40A, E44Q, F62S, S68T, M77T, T79Y, R81Q, S82aN, N82bS, K83R, G88A, V89L, N99S)
B13: F010302366 (VHH)
VHH: B8 VHH with V64A
notes: F010302365 background plus R39Q

Experiments:
huNav1.7α = biological target: T1, huNav1.7α (human, UniProt Q15858 1-1988); assay: binding FACS, HEKa cells
T1 construct: HEK cells expressing the α subunit alone; also called HEKa; HEK huNav1.7α
In short: (§1)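 Assessment used purified FLAG3-tagged ISVD incubated on cells for 30 minutes at 4° C in PBS containing 10% FBS and NaN₃, with cells washed between steps. Propidium iodide (1 μg/mL) staining removed dead cells from analysis.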

huNav1.7α+β1 [1] = biological target: T2, huNav1.7α+β1 (human, UniProt Q15858 1-1988; Q07699 19-218); assay: cell-based or functional assay
huNav1.7α+β1-β2-β3 = biological target: T3, huNav1.7α+β1-β2-β3 (human, UniProt Q15858 1-1988; Q07699 19-218; O60939 30-215; Q9NY72 23-215); assay: binding FACS, HEK FlpIn cells
T3 construct: 5N11S variant; also called huNav1.7-beta1-beta2-beta3; huNav1.7α+Navβ1-Navβ2-Navβ3

huNav1.7α+β1 [2] = biological target: T2, huNav1.7α+β1; assay: binding FACS, HEKa/β1 cells
In short: as §1

[3] = biological target: T4, huNav1.7α + β1-β2-β3 (human Nav1.7α co-expressed with human Navβ1, Navβ2 and Navβ3 on cells) (human); assay: binding FACS, CHO FlpIn cells
T4 construct: also called huNav1.7-beta1-beta2-beta3; CHO FlpIn huNav1.7α + β1-β2-β3
In short: as §1

[4] = biological target: T5, huNav157 chimera 14 + β1-β2-β3 on cells (human (huNav1.7α/huNav1.5α chimera)); assay: binding FACS, HEK FlpIn cells
T5 construct: Extracellular loops and transmembrane helices of Nav1.7α, intracellular loops of Nav1.5α; P2A linkers are cleaved co-translationally; also called HEK FlpIn Nav157ch14-β1-β2-β3; huNav157 chimera 14-beta1-beta2-beta3

[5] = biological target: T6, huNav157 chimera 14 on cells (without β subunits) (human (huNav1.7α/huNav1.5α chimera)); assay: binding FACS, HEK FlpIn cells
T6 construct: also called HEK FlpIn Nav157ch14

[6] = biological target: huNav1.7α + β1 on HEK cells (human, UniProt Q15858 1-1988; Q07699 19-218); assay: binding FACS, HEK cells (HEKa/b1)
[7] = biological target: T7, huNav1.7α on HEK cells (without β subunits) (human, UniProt Q15858 1-1988); assay: binding FACS, HEK cells (HEKa)
T7 construct: also called HEKa huNav1.7α

rhNav1.7α+β1-β2-β3 = biological target: T8, rhNav1.7α+β1-β2-β3 (rhesus monkey α subunit with human β …); assay: binding FACS, CHO FlpIn cells
T8 construct: P2A cleaves it into α, β1, β2, β3; also called rhNav1.7-beta1-beta2-beta3

Row | Binder | IC50 [M], electrophysiology (huNav1.7α+β1 [1]) | Bmax relative to '535 (huNav1.7α+β1 [2]) | EC50 (huNav1.7α+β1 [2]) | binding result (rhNav1.7α+β1-β2-β3) | further results
1 | B1 | 1.4e-08 M | 122% | 3 nM |  | EC50 (huNav1.7α): 26 nM; EC50 (huNav1.7α+β1-β2-β3): 5.1 nM
2 | B2 | 2.2e-08 M | 102% | 4.8 nM |  | 
3 | B3 | 1.3e-07 M | 103% | 3.6 nM |  | 
4 | B4 | 3.2e-08 M | 115% | 3.8 nM |  | 
5 | B5 | 6.3e-08 M | 119% | 4.1 nM |  | 
6 | B6 |  |  |  |  | EC50 [3]: 66 nM; EC50 [4]: 33 nM; EC50 [5]: 12 nM; EC50 [6]: 39 nM; EC50 [7]: 14 nM
7 | B7 |  |  |  |  | EC50 [3]: 56 nM; EC50 [4]: 29 nM; EC50 [5]: 11 nM; EC50 [6]: 30 nM; EC50 [7]: 13 nM
8 | B8 |  |  |  | no binding | 
9 | B9 |  |  |  | no binding | 
10 | B10 |  |  |  | no binding | 
11 | B11 |  |  |  | no binding | 
12 | B12 |  |  |  | no binding | 
13 | B13 |  |  |  | no binding | 
